Tested on: TRPV1
Experiment: TRPV1 phosphorylation (32P incorporation, immunoprecipitation)
Type: cell-based, rat
Conditions: PRL 40 nM 10 min
Protocol: The activity of TRPV1 is dependent upon its phosphorylation status. Hyperphosphorylation of TRPV1 is associated with increased responsiveness to capsaicin (Bhave et al., 2003; Mohapatra and Nau, 2005; Zhang et al., 2005; Mandadi et al., 2006). Since PRL-signaling through PRL-R is known to activate various intracellular kinases pathways, the effect of PRL on TRPV1 phosphorylation status in cultured TG neurons was assessed. Cultured TG neurons were incubated with PRL (40 nM) or vehicle for 10 min in the presence of radioactive phosphate (P^32-orthophosphate). Extracts of the radiolabelled TG cultures were prepared and subjected to immunoprecipated using an antibody that specifically recognizes TRPV1, and the resulting immune complexes were resolved by SDS-PAGE and prepared for immunoblot analysis. The blots were subjected to autoradiography to visualize radiolabelled P^32-TRPV1 and to determine its relative abundance in the presence of PRL. The resolved protein was then immunoblotted using an antibody raised against TRPV1 to ensure that the observed differences in radiolabelled TRPV1 abundance are not due to technical errors (e.g., unequal gel loading). […]
Autoradiography and Western blot results were scanned and quantified using NIH Image 1.62. […]

B1: PRL: Ovine PRL [oPRL-21, BIO] provided by NHPP; prolactin polypeptide hormone (protein, UniProt P01240 31-229, looked up)
Prolactin: TPVCPNGPGNCQVSLRDLFDRAVMVSHYIHNLSSEMFNEFDKRYAQGKGFITMALNSCHTSSLPTPEDKEQAQQTHHEVLMSLILGLLRSWNDPLYHLVTEVRGMKGVPDAILSRAIEIEEENKRLLEGMEMIFGQVIPGAKETEPYPVWSGLPSLQTKDEDARHSAFYNLLHCLRRDSSKIDTYLKLLNCRIIYNNNC
**Q.** How did the TRPV1 phosphorylation status (TG neurons from OVX rats) turn out when B1 was run?
**A.** Its TRPV1 phosphorylation status is “no observable effect”.

**Q.** What about the “phosphorylation state of TRPV1” value (neurons from intact female rats) of the same molecule?
**A.** Its value is 150±13%.

Reference: US7507716B2, “Method for treating pain with prolactin antagonists” (Board of Regents, The University of Texas System, priority 2005, dated 2009)
